These results are taken from patent publication US20140322220A1.

Where only a bound is given, the exact number is not on record here.

The term EC50 denotes the concentration at which the effect is half-maximal. Read a low EC50 as higher potency in that assay.

The target in test [1] is hFGFR2β-Fc (IIIc) (human) (UniProt P21802). As to the kind of experiment: ELISA, 1 ug/ml Fab on coated antigen; grade of signal to background (+ 2-3, ++ 3-5, +++ >5).
Test [2] concerns the target mFGFR2β-Fc (IIIc) (murine) (UniProt P21803). The description is as above.
Test [3] addresses murine FGFR2 on murine cancer cell lines (murine) (UniProt P21803). As to the kind of experiment: FACS, 5 ug/ml, 4T1 cells. (Flow cytometry measures light scatter and fluorescence of single cells or particles in a stream.)
For test [4], the target named is human FGFR2 on human cancer cell lines (human) (UniProt P21802). As to the kind of experiment: FACS, 5 ug/ml, HEC1b cells.
Test [5] has the same target. The test can be described thus: FACS, 5 ug/ml, SNU16 cells.
Test [6] has the same target. The test can be described thus: FACS, 5 ug/ml, MFE280 cells.
The target is the same in test [7]. The test can be described thus: FACS, 5 ug/ml, KATOIII cells.
Test [8] has the same target. As to the kind of experiment: FACS, 5 ug/ml, NCI-N87 cells.
In test [9] the target is murine FGFR2 on murine cancer cell lines (murine) (UniProt P21803). The test can be described thus: FACS titration 0.1-100 nM, 4T1 cells.
For test [10], the target named is human FGFR2 on human cancer cell lines (human) (UniProt P21802). The test can be described thus: FACS titration 0.1-100 nM, SNU16 cells.
The target is the same in test [11]. As to the kind of experiment: FACS titration 0.1-100 nM, MFM223 cells.

B1: M048-D01 (soluble Fab) (Fab, V domains shown)
VH: EVQLLESGGGLVQPGGSLRLSCAASGFTFSSYAMSWVRQAPGKGLEWVSAISGSGTSTYYADSVKGRFTISRDNSKNTLYLQMNSLRAEDTAVYYCARVRYNWNHGDWFDPWGQGTLVTVSS
VL: QSVLTQPPSASGTPGQRVTISCSGSSSNIGNNYVSWYQQLPGTAPKLLIYENYNRPAGVPDRFSGSKSGTSASLAISGLRSEDEADYYCSSWDDSLNYWVFGGGTKLTVL
For B1, the ELISA signal to background ratio in test [1] and in test [2] was more than 5 throughout.

B2: M021-H02-hIgG1 (antibody, V domains shown)
VH: EVQLLESGGGLVQPGGSLRLSCAASGFTFSNYGIHWVRQAPGKGLEWVAVISYDGSNKYYADSVKGRFTISRDNSKNTLYLQMNSLRAEDTAMYYCARDSSSAEDYWGQGTLVTVSS
VL: QSVLTQPPSASGTPGQRVTISCSGSSSNTGSNTVNWYQQLPGTAPKLLIYRNNQRPSGVPDRFSGSKSGTSASLAISGLRSEDEADYYCETWDSNTRGVVFGGGTKLTVL
On to B2, for which the Geo Mean minus Geo Mean of secondary antibody alone (FACS) in [3] was 100 to 1000 geomean; in [4], 100 to 1000 geomean; in test [5], 100 to 1000 geomean; in [6] it was 10 to 100 geomean; in test [7], more than 10000 geomean; in test [8] it was 10 to 100 geomean. In addition, the EC50 in [9] was 0.0208 µM; in test [10], 0.0895 µM; in test [11], 0.0169 µM.

B3: M021-H02 (soluble Fab) (Fab, V domains shown)
VH: B2 VH
VL: B2 VL
With B3, the ELISA signal to background ratio in test [1] and in [2] was more than 5 throughout.
